Where a chain is given by its changes, count along the chain named. Names may count otherwise. Where two headings read alike, the source gives them in different places. Ends that are not written are not given here.
Assays:
[1] = tested on: Kv1.2 channels; assay: Two-electrode voltage-clamp on Kv1.2 expressed in X. laevis oocytes; conditions: for IC50: read-out: IC50 for Kv1.2, two-electrode voltage-clamp, X. laevis oocytes, concentration-response curve fitted with Hill equation, mean ± standard error, n ≥ 3
Procedure: (§1) For the expression of the voltage-gated potassium channels (rKv1.1, rKv1.2, hKv1.3, rKv1.4, rKv1.5, rKv1.6, Shaker IR, hKv3.1, rKv4.3, and hERG) in Xenopus laevis oocytes, the linearized plasmids were transcribed using the T7 or SP6 mMESSAGE-mMACHINE transcription kit (Ambion). The harvesting of stage V–VI oocytes from an anaesthetized female X. laevis frog was previously described[59]. Oocytes were injected with 50 nL of cRNA at a concentration of 1 ng/nL using a micro-injector (Drummond Scientific, USA). The oocytes were incubated in a solution containing (in mM): NaCl, 96; KCl, 2; CaCl2, 1.8; MgCl2, 2 and HEPES, 5 (pH 7.4), supplemented with 50 mg/L gentamycin sulfate.
(§2) Two-electrode voltage-clamp recordings were performed at room temperature (18–22 °C) using a Geneclamp 500 amplifier (Molecular Devices, USA) controlled by a pClamp data acquisition system (Axon Instruments, USA). Whole cell currents from oocytes were recorded 1–4 days after injection. Bath solution composition was ND96 (in mM): NaCl, 96; KCl, 2; CaCl2, 1.8; MgCl2, 2 and HEPES, 5 (pH 7.4) or HK (in mM): NaCl, 2; KCl, 96; CaCl2, 1.8; MgCl2, 2 and HEPES, 5 (pH 7.4). Voltage and current electrodes were filled with 3 M KCl. Resistances of both electrodes were kept between 0.7 and 1.5 MΩ. The elicited currents were filtered at 0.5 kHz and sampled at 2 kHz (for potassium currents) or filtered at 2 kHz and sampled at 20 kHz (for sodium currents) using a four-pole low-pass Bessel filter. Leak subtraction was performed using a -P/4 protocol. Kv1.1–Kv1.6 and Shaker currents were evoked by 250 ms depolarizations to 0 mV followed by a 250 ms pulse to −50 mV, from a holding potential of −90 mV. Current traces of hERG channels were elicited by applying a +40 mV prepulse for 2 s followed by a step to −120 mV for 2 s. […] In order to investigate the current–voltage relationship, current traces were evoked by 10 mV depolarization steps from a holding potential of −90 mV. To assess the concentration dependency of the toxin induced inhibitory effects, a concentration–response curve was constructed, in which the percentage of current inhibition was plotted as a function of toxin concentration. Data were fitted with the Hill equation: y = 100/[1 + (IC50/[toxin])^h], were y is the amplitude of the toxin-induced effect, IC50 is the toxin concentration at half-maximal efficacy, [toxin] is the toxin concentration, and h is the Hill coefficient. GV curves were calculated from IV relationships as follows: gK = IK/(Em−EK) with EK = (RT/zF)ln[K #0]o/[K #0]i. In these equations gK represents the conductance, IK the potassium current, Em the membrane potential, EK the reversal potential, R the gas constant (8.31 J/K mol), T the temperature, z the charge of the ion (for K+ ions: z = 1), F the Faraday’s constant (96.500 C/mol), [K #0]o and [K #0]i respectively are the extracellular and intracellular K+ ion concentrations. The values of IK or gK were plotted as function of voltage and fitted using the Boltzmann equation: gK/gmax = [1 + exp(Vg−V)/k]−1, were gmax represents maximal gK, Vg is the voltage corresponding to half-maximal conductance, and k is the slope factor. Comparison of two sample means was made using a paired Student’s t test (P < 0.05). All data represent at least three independent experiments (n ≥ 3) and are presented as mean ± standard error.

[2] = tested on: Kv1.6 channels; assay: Two-electrode voltage-clamp on Kv1.6 expressed in X. laevis oocytes; conditions: for IC50: read-out: IC50 for Kv1.6, two-electrode voltage-clamp, X. laevis oocytes, concentration-response curve fitted with Hill equation, mean ± standard error, n ≥ 3
Procedure: as §1, §2

[3] = molecular target: voltage-gated potassium channel rKv1.2 (rat (from the prefix in rKv1.2)) (UniProt P63142)
Chain of voltage-gated potassium channel rKv1.2 (rat (from the prefix in rKv1.2)) (P63142 whole entry): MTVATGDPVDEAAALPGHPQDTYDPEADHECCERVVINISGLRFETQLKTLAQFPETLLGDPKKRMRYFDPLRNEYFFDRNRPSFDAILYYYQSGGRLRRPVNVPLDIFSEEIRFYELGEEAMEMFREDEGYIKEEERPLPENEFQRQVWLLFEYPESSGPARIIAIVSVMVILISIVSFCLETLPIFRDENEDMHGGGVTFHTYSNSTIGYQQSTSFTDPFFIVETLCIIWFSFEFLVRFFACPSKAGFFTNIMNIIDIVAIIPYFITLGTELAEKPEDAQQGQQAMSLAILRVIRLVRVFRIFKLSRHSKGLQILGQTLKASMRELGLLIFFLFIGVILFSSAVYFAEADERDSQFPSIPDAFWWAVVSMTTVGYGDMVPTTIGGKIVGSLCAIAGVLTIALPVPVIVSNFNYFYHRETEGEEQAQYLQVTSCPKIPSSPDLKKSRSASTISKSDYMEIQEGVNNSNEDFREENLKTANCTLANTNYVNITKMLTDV

[4] = molecular target: voltage-gated potassium channel rKv1.6 (rat (from the prefix in rKv1.6)) (UniProt P17659)
Chain of voltage-gated potassium channel rKv1.6 (rat (from the prefix in rKv1.6)) (P17659 whole entry): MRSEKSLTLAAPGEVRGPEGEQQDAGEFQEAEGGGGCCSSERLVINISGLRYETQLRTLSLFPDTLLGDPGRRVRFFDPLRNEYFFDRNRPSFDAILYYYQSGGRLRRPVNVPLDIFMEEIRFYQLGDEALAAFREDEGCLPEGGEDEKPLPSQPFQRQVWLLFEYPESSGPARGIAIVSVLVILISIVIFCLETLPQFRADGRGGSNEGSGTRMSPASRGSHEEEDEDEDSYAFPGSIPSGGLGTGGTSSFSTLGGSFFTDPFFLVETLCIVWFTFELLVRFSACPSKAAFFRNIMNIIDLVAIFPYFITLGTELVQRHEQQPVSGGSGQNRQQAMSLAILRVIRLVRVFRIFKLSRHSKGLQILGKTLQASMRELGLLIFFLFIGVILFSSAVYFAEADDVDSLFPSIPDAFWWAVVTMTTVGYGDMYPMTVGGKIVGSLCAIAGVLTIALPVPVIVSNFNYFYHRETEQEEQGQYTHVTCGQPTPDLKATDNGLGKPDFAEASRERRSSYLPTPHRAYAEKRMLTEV

[5] = molecular target: voltage-gated potassium channel rKv1.2 (rat (from the prefix in rKv1.2)) (UniProt P63142); remark: listed apart in the source
[6] = molecular target: voltage-gated potassium channel rKv1.6 (rat (from the prefix in rKv1.6)) (UniProt P17659); remark: listed apart in the source

Q: How did the IC50 [1] turn out when “AtPDF2.3 [K33A][G36N]: rAtPDF2.3 variant containing only Asparagine36 (CXN toxin signature) (RTCESKSHRFKGPCVSTHNCANVCHNEGFGGGACRNFRRRCYCTRHC; ends and bridges not checked; cysteine pairing not given here)” was run?
A: Its IC50 is 1.38 ± 0.133 µM.

Q: And the IC50 [2]?
A: Its IC50 is 0.366 ± 0.114 µM.

Q: “rAtPDF2.3[G36N]: rAtPDF2.3 variant with both Lysine33 and Asparagine36 (KCXN toxin signature) (RTCESKSHRFKGPCVSTHNCANVCHNEGFGGGKCRNFRRRCYCTRHC; ends and bridges not checked; cysteine pairing not given here)” was tested. Which “fold decrease of Kv1.2 IC50 as compared to rAtPDF2.3” value ([1]; ratio of IC50 values) did it give?
A: The value was 2.1 fold.

Q: What about the IC50 [1] of the same molecule?
A: The IC50 was 0.611 ± 0.091 µM.

Q: And the “fold decrease of Kv1.6 IC50 as compared to rAtPDF2.3” value ([2]; ratio of IC50 values)?
A: Its value is 7.1 fold.

Q: What about the IC50 [2] of the same molecule?
A: The IC50 was 0.138 ± 0.038 µM.

Q: For “rAtPDF2.3[K33A]: rAtPDF2.3 variant with neither Lysine33 nor Asparagine36, devoid of the toxin signature (RTCESKSHRFKGPCVSTHNCANVCHNEGFGGGACRGFRRRCYCTRHC; ends and bridges not checked; cysteine pairing not given here)”, which IC50 [1] is on record?
A: Its IC50 is 2.04 ± 0.383 µM.

Q: What about the IC50 [2] of the same molecule?
A: Its IC50 is 3.5 ± 0.235 µM.

Q: Which IC50 of inhibition of Kv1.2 potassium current, two-electrode voltage clamp on X. laevis oocytes, concentration-response curve [3] does the source give for “recombinant Arabidopsis thaliana plant defensin AtPDF2.3 (from UniProt Q9ZUL7 31-77) (peptide)” here?
A: The IC50 of inhibition of Kv1.2 potassium current, two-electrode voltage clamp on X. laevis oocytes, concentration-response curve was 1.3 µM.

Q: And the inhibition of the Kv1.2 potassium current by 2 μM rAtPDF2.3 in HK solution [3]?
A: Its inhibition of the Kv1.2 potassium current by 2 μM rAtPDF2.3 in HK solution is 66%.

Q: What about the inhibition of the Kv1.2 potassium current by 2 μM rAtPDF2.3 in ND96 solution (data not shown) [3] of the same molecule?
A: Its inhibition of the Kv1.2 potassium current by 2 μM rAtPDF2.3 in ND96 solution (data not shown) is 59%.

Q: And the IC50 of inhibition of Kv1.6 potassium current, two-electrode voltage clamp on X. laevis oocytes, concentration-response curve [4]?
A: The IC50 of inhibition of Kv1.6 potassium current, two-electrode voltage clamp on X. laevis oocytes, concentration-response curve was 0.978 µM.

B1: rAtPDF2.3[K33A] (peptide)
chain: RTCESKSHRFKGPCVSTHNCANVCHNEGFGGGACRGFRRRCYCTRHC
modifications: not fully specified; cysteine pairing not given here
Q: Which IC50 of inhibition of Kv1.2 potassium current, two-electrode voltage clamp on X. laevis oocytes, concentration-response curve [5] does the source give for B1 here?
A: Its IC50 of inhibition of Kv1.2 potassium current, two-electrode voltage clamp on X. laevis oocytes, concentration-response curve is 2.04 µM.

Q: What about the IC50 of inhibition of Kv1.6 potassium current, two-electrode voltage clamp on X. laevis oocytes, concentration-response curve [6] of the same molecule?
A: Its IC50 of inhibition of Kv1.6 potassium current, two-electrode voltage clamp on X. laevis oocytes, concentration-response curve is 3.5 µM.

B2: rAtPDF2.3[G36N] (peptide)
chain: B1 chain with A33K, G36N
modifications: not fully specified; cysteine pairing not given here
Q: Which results are given for B2?
A: IC50 of inhibition of Kv1.2 potassium current, two-electrode voltage clamp on X. laevis oocytes, concentration-response curve [5]: 0.611 µM; IC50 of inhibition of Kv1.6 potassium current, two-electrode voltage clamp on X. laevis oocytes, concentration-response curve [6]: 0.138 µM

B3: rAtPDF2.3[K33A][G36N] (peptide)
chain: B1 chain with G36N
modifications: not fully specified; cysteine pairing not given here
Q: B3 was tested. Which IC50 of inhibition of Kv1.2 potassium current, two-electrode voltage clamp on X. laevis oocytes, concentration-response curve [5] did it give?
A: Its IC50 of inhibition of Kv1.2 potassium current, two-electrode voltage clamp on X. laevis oocytes, concentration-response curve is 1.38 µM.

Q: And the IC50 of inhibition of Kv1.6 potassium current, two-electrode voltage clamp on X. laevis oocytes, concentration-response curve [6]?
A: Its IC50 of inhibition of Kv1.6 potassium current, two-electrode voltage clamp on X. laevis oocytes, concentration-response curve is 0.366 µM.

From paper PMC5004176, “The antifungal plant defensin AtPDF2.3 from Arabidopsis thaliana blocks potassium channels” (Scientific Reports, 2016)
